The numbers were not newly measured in paper PMC13142048, which cites them from elsewhere.

Data set [1] addresses CD96 (TACTILE) (Homo sapiens) (UniProt P40200).
The next data set addresses TIGIT (Homo sapiens) (UniProt Q495A1).
Data set [2] has as its target CD226 (DNAM-1) (Homo sapiens) (UniProt Q15762).
Chain of UniProt Q15762 (Q15762 19-254): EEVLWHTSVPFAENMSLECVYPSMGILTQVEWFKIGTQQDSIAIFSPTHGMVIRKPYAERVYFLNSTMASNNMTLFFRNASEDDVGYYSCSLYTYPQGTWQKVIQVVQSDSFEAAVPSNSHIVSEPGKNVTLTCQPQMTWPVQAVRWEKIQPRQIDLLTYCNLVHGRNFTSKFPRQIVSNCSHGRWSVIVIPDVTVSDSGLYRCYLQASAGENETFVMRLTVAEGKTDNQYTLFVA

Chain of UniProt P40200 (P40200 22-519): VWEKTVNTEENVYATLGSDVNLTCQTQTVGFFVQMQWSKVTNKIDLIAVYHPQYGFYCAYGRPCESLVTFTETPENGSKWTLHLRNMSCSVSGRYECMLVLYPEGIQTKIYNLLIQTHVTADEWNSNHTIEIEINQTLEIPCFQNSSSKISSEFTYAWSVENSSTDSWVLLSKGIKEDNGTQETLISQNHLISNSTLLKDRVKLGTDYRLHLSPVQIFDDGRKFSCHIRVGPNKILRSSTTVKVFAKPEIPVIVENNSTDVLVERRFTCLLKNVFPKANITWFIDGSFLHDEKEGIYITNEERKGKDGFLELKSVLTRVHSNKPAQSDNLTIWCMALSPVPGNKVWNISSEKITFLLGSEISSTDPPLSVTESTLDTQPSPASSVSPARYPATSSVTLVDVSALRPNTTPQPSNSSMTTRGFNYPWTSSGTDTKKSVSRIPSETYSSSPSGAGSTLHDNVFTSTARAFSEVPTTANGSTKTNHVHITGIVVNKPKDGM
Chain of UniProt Q495A1 (Q495A1 22-141): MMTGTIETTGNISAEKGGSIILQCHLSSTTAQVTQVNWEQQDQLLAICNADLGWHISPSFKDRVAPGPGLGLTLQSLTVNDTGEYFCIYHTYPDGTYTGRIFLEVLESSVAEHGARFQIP

For CD155 (from UniProt P15151), the Kd in data set [1] was 37.6 nM; with TIGIT (Homo sapiens) it was 3.15 nM; in data set [2], 119 nM.

The Kd is the constant that tells how readily two partners part at equilibrium.
